Patent publication US20190202883A1 (Takeda / Millennium, published 2019)
Square brackets hold non-standard residues; d marks the D form. Side chains are listed from the residue outwards. Ends that are not written are not given here. Phe(2-F) = N[C@@H](Cc1ccccc1F)C(=O)O; NMeY = CN[C@@H](Cc1ccc(O)cc1)C(=O)O; αMeF = C[C@](N)(Cc1ccccc1)C(=O)O; Iva = CC[C@](C)(N)C(=O)O; Oda = not defined here; Aib = CC(C)(N)C(=O)O

T1: human GIPR (human, UniProt P48546 22-466)
T1 sequence (looked up): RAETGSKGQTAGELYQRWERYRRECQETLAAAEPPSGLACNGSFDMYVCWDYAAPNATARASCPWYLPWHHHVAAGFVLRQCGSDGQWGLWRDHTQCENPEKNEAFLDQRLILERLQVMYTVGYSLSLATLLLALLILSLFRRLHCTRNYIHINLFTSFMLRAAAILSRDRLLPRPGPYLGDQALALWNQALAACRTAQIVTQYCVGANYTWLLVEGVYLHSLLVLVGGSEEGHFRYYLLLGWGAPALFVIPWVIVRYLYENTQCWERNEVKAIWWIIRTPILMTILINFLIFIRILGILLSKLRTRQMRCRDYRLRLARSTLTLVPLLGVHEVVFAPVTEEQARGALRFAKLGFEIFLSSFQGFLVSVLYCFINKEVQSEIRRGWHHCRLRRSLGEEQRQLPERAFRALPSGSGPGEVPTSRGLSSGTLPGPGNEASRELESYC

T2: human NPY2R (human, UniProt P49146 1-381)
T2 sequence (looked up): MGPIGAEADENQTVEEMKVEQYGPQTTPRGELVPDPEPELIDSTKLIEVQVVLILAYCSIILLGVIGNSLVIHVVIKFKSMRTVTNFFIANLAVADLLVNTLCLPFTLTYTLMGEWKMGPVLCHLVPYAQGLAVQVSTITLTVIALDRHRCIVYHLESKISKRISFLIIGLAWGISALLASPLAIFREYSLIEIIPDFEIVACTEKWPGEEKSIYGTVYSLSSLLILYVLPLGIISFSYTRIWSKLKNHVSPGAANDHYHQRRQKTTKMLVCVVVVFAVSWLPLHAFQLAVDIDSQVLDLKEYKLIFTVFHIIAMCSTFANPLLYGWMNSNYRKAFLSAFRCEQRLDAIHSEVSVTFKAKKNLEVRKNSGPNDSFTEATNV

B1: H-Tyr-Aib-Glu-Gly-Thr-αMePhe-Thr-Ser-Asp-Lys(-Gly-Gly-Gly-Gly-Oda)-Aib-Ile-Aib-Leu-Asp-Lys-Gln-Arg-Gln-Iva-Glu-Phe-Val-Arg-His-Leu-Leu-Asn-Lys-Aib-Thr-Arg-Gln-A … (peptide)
peptide: H-Y[Aib]EGT[αMeF]TSDK([Gly-Gly-Gly-Gly-Oda])[Aib]I[Aib]LDKQRQ[Iva]EFVRHLLNK[Aib]TRQR[Phe(2-F)]-NH2
modifications: reading uncertain; also: printed as H-Tyr-Aib-Glu-Gly-Thr-αMePhe-Thr-Ser-Asp-Lys(-Gly-Gly-Gly-Gly-Oda)-Aib-Ile-Aib-Leu-Asp-Lys-Gln-Arg-Gln-Iva-Glu-Phe-Val-Arg-His-Leu-Leu-Asn-Lys-Aib-Thr-Arg-Gln-Arg-Phe(2-F)-NH2
B2: Me-Tyr-Aib-Glu-Gly-Thr-αMePhe-Thr-Ser-Asp-Lys(-Gly-Gly-Gly-Gly-Oda)-Ala-Ile-Aib-Leu-Glu-Lys-Gln-Arg-Gln-Iva-Glu-Phe-Val-Arg-His-Leu-Leu-Asn-Lys-Aib-Thr-Arg-Gln- … (peptide)
peptide: [NMeY][Aib]EGT[αMeF]TSDK([Gly-Gly-Gly-Gly-Oda])AI[Aib]LEKQRQ[Iva]EFVRHLLNK[Aib]TRQRY-NH2
modifications: reading uncertain; also: printed as Me-Tyr-Aib-Glu-Gly-Thr-αMePhe-Thr-Ser-Asp-Lys(-Gly-Gly-Gly-Gly-Oda)-Ala-Ile-Aib-Leu-Glu-Lys-Gln-Arg-Gln-Iva-Glu-Phe-Val-Arg-His-Leu-Leu-Asn-Lys-Aib-Thr-Arg-Gln-Arg-Tyr-NH2
B3: H-Tyr-Aib-Glu-Gly-Thr-αMePhe-Thr-Ser-Asp-Lys(-Gly-Gly-Gly-Gly-Oda)-Ser-Ile-Aib-Leu-Glu-Lys-Gln-Arg-Gln-Iva-Glu-Phe-Val-Arg-His-Leu-Leu-Asn-Lys-Aib-Thr-Arg-Gln-A … (peptide)
peptide: H-Y[Aib]EGT[αMeF]TSDK([Gly-Gly-Gly-Gly-Oda])SI[Aib]LEKQRQ[Iva]EFVRHLLNK[Aib]TRQRY-NH2
modifications: reading uncertain; also: printed as H-Tyr-Aib-Glu-Gly-Thr-αMePhe-Thr-Ser-Asp-Lys(-Gly-Gly-Gly-Gly-Oda)-Ser-Ile-Aib-Leu-Glu-Lys-Gln-Arg-Gln-Iva-Glu-Phe-Val-Arg-His-Leu-Leu-Asn-Lys-Aib-Thr-Arg-Gln-Arg-Tyr-NH2
B4: Me-Tyr-Aib-Glu-Gly-Thr-αMePhe-Thr-Ser-Asp-Lys(-Gly-Gly-Gly-Gly-Oda)-Ser-Ile-Aib-Leu-Glu-Lys-Gln-Arg-Gln-Iva-Glu-Phe-Val-Arg-His-Leu-Leu-Asn-Lys-Aib-Thr-Arg-Gln- … (peptide)
peptide: Me-Y[Aib]EGT[αMeF]TSDK([Gly-Gly-Gly-Gly-Oda])SI[Aib]LEKQRQ[Iva]EFVRHLLNK[Aib]TRQRY-NH2
modifications: reading uncertain; also: printed as Me-Tyr-Aib-Glu-Gly-Thr-αMePhe-Thr-Ser-Asp-Lys(-Gly-Gly-Gly-Gly-Oda)-Ser-Ile-Aib-Leu-Glu-Lys-Gln-Arg-Gln-Iva-Glu-Phe-Val-Arg-His-Leu-Leu-Asn-Lys-Aib-Thr-Arg-Gln-Arg-Tyr-NH2
B5: H-Tyr-Aib-Glu-Gly-Thr-αMePhe-Thr-Ser-Asp-Lys(-Gly-Gly-Gly-Gly-Oda)-Aib-Ile-Aib-Leu-Asp-Lys-Gln-Arg-Gln-Iva-Glu-Phe-Val-Arg-His-Leu-Leu-Asn-Lys-Aib-Thr-Arg-Gln-A … (peptide)
peptide: H-Y[Aib]EGT[αMeF]TSDK([Gly-Gly-Gly-Gly-Oda])[Aib]I[Aib]LDKQRQ[Iva]EFVRHLLNK[Aib]TRQRY-NH2
modifications: reading uncertain; also: printed as H-Tyr-Aib-Glu-Gly-Thr-αMePhe-Thr-Ser-Asp-Lys(-Gly-Gly-Gly-Gly-Oda)-Aib-Ile-Aib-Leu-Asp-Lys-Gln-Arg-Gln-Iva-Glu-Phe-Val-Arg-His-Leu-Leu-Asn-Lys-Aib-Thr-Arg-Gln-Arg-Tyr-NH2

Target: human GLP-1R (human, UniProt P43220 24-463)
Assay: cell-based or functional assay

Row | Binder | Agonist activity (EC50), Cre-luc reporter assay [pM]
1 | B1 | 610
2 | B2 | 2300
3 | Me-Y[Aib]EGT[αMeF]TSDK([Gly-Gly-Gly-Gly-Pal])[Aib]I[Aib]LDKQRQ[Iva]EFVRHLLNK[Aib]TRQRY-NH2 | 83
4 | B3 | 240
5 | B4 | 1300
6 | B5 | 320
7 | H-Y[Aib]EGT[αMeF]TSDK([Gly-Gly-Gly-Gly-Pal])SI[Aib]LEKQRQ[Iva]EFVRHLLNK[Aib]TRQRY-NH2 | 53
8 | Me-Y[Aib]EGT[αMeF]TSDK([Gly-Gly-Gly-Gly-Pal])SI[Aib]LEKQRQ[Iva]EFVRHLLNK[Aib]TRQRY-NH2 | 48

Target: T1, human GIPR
Assay: cell-based or functional assay

Row | Binder | Agonist activity (EC50), Cre-luc reporter assay [pM]
9 | B1 | 410
10 | B2 | 400
11 | Me-Y[Aib]EGT[αMeF]TSDK([Gly-Gly-Gly-Gly-Pal])[Aib]I[Aib]LDKQRQ[Iva]EFVRHLLNK[Aib]TRQRY-NH2 | 68
12 | B3 | 170
13 | B4 | 250
14 | B5 | 220
15 | H-Y[Aib]EGT[αMeF]TSDK([Gly-Gly-Gly-Gly-Pal])SI[Aib]LEKQRQ[Iva]EFVRHLLNK[Aib]TRQRY-NH2 | 41
16 | Me-Y[Aib]EGT[αMeF]TSDK([Gly-Gly-Gly-Gly-Pal])SI[Aib]LEKQRQ[Iva]EFVRHLLNK[Aib]TRQRY-NH2 | 52

Target: T2, human NPY2R
Assay: cell-based or functional assay

Row | Binder | Agonist activity (EC50), Cre-luc reporter assay [pM]
17 | B1 | 1300
18 | B2 | 1700
19 | Me-Y[Aib]EGT[αMeF]TSDK([Gly-Gly-Gly-Gly-Pal])[Aib]I[Aib]LDKQRQ[Iva]EFVRHLLNK[Aib]TRQRY-NH2 | 100
20 | B3 | 1600
21 | B4 | 2600
22 | B5 | 2100
23 | H-Y[Aib]EGT[αMeF]TSDK([Gly-Gly-Gly-Gly-Pal])SI[Aib]LEKQRQ[Iva]EFVRHLLNK[Aib]TRQRY-NH2 | 41
24 | Me-Y[Aib]EGT[αMeF]TSDK([Gly-Gly-Gly-Gly-Pal])SI[Aib]LEKQRQ[Iva]EFVRHLLNK[Aib]TRQRY-NH2 | 49
